Where no end group is shown, it is not given here. fluorescein = fluorescein label covalently attached to the C-terminal cysteine
Biological target: T1, cpSRP43-FL (Arabidopsis thaliana, UniProt O22265 57-373)
T1 sequence (looked up): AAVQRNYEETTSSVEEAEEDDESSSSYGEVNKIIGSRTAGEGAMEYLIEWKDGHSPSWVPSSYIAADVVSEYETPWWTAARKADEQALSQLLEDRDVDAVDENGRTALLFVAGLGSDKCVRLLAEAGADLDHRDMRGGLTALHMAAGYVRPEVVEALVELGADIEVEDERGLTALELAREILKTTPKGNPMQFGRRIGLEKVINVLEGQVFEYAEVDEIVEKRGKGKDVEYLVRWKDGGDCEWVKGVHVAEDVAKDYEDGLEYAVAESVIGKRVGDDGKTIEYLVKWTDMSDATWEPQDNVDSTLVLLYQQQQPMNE
Test: fluorescence polarisation

QKQKAPPGTARRKRKAC(fluorescein) [fluorescein-labeled cpSRP54M peptide]: binds.

Reference: article PMC8879858 (Nature plants, 2021)
